In patent US20190201542A1 (AbbVie / Abbott, published 2019):
Substitutions are numbered along the chain they refer to.

B1: SC16.73 (antibody, V domains shown)
VH: QVQLQQSGAELMKPGASVKISCKANGYTFSSYWIEWLRQRPGHGLEWIGEILPGSDNSNYNEKFKGKATFTADTSSNTAYMQLSSLTSEESAVYYCTRGLRRDGSYYYVMEHWGQGTSVTVSS
VL: DIQMTQSPSSLSASLGERVSLTCRASQDIGYSLNWLQQEPDGTIKRLIYATSSLDSGVPKRFSGSRSGSDYSLTISSLESEDFVDYYCLQYASSPWTFGGGTKLEIK
notes: murine mAb
B2: SC16.63 (antibody, V domains shown)
VH: QVQLQQSGTELLRPGASVKISCKATGYTFSSYWMEWVKQRPGHGLEWIGEILPGSGTTQYNEKFKGKATFTADTSSNTAYMHLSSLTSEDSAVYYCARGTNSLWGQGTLVTVSA
VL: QIVLTQSPAIMSASPGEKVTMTCSASSSVSYMYWYQQKSGTSPKRWIYDTSKLASGVPARFSGSGSGTSYSLTISSMEAEDAATYYCQQWSSNPYTFGGGTKLEIK
notes: murine mAb
B3: SC16.58 (antibody, V domains shown)
VH: DVQLVESGGGLVQPGGSRKLSCAASGFTFSSFGMHWVRQAPEKGLEWVAYISSGSSNIYYADTVKGRFTISRDNPKNTLFLQMTSLRSEDTAMYYCARGYYGNYDAMDYWGQGTSVTVSS
VL: DIQMTQSPASLSSSVGETVTITCRASENIYSYLAWYQQKQGKSPQLLVYNAKTLAEGVPSRFSGSGSGTQFSLKINSLQPEDFGTYYCQHHYDSPLTFGAGTKLELR
notes: murine mAb
B4: SC16.81 (antibody, V domains shown)
VH: QVQLKESGPVLVAPSQSLSITCTVSGFSLTSYGVHWVRQPPGKGLEWLGVIWAGGSTNYNSALMSRLSISKDNSKSQVFLKMNSLQTDDTAMYYCAKQGNFYAMDYWGQGTSVTVSS
VL: QIVLTQSPAIMSASLGERVTLTCTASSSVSSSYLHWYQQKPGSSPKLWIYSTSNLASGVPTRFSGSGSGTSYSLRISSMEAEDAATYYCHQYNRSPLTFGAGTKLELK
notes: murine mAb
B5: SC16.101 (antibody, V domains shown)
VL: B4 VL with L21M, T61A, G67E, R75T, S78N, N93H, L97F, A101S, L107I
V domain: QVTLKESGPGILQPSQTLSLTCSFSGFSLSTSGMGVGWIRQPSGKGLEWLAHIWWDDVKRYNPALKSRLTISKDASSSQVFLKIASVDTAETATYYCAHILDRAYYFDYWGQGTTLTVTS
notes: murine mAb
B6: SC16.8 (antibody, V domains shown)
VH: QAQLQQSGAELVRPGTSVKVSCKASGYAFTNYLIEWVKQRPGQGLEWIGVINPGTGGTNYNENFKGKATLTADKSSSTAYMQLSSLTSDDSAVYFCARSPYDYHEGAMDYWGQGTSVTVSS
VL: EIQMTQSPSSMSASLGDRITITCQATQDIVKNLNWYQQKPGKPPSFLIYYAIELAEGVPSRFSGSGSGSDYSLTISNLESEDFADYYCLQFYEFPFTFGAGTKLELK
notes: murine mAb
B7: SC16.105 (antibody, V domains shown)
VH: QVQLQQPGAELVKPGASVKLSCKASGYTFTSYWMHWVKQRPGQGLEWIGVINPSNGRTNYNEKFKSKATLTVDKSSSTAYMQLSSLTSEDSAVYYCARRRELGTLYAMDYWGQGTSVTVSS
VL: DIVMTQSHKFMSTSVGDRVSITCKASQDVGTAVAWYQQKPGQSPKLLIYWASIRHTGVPDRFTGSGSGTDFTLTISNVQSEDLADYFCQQYSSYPLTFGAGTKLELK
notes: murine mAb
B8: SC16.88 (antibody, V domains shown)
VH: QVQLQQSGAELARPGASVKLSCKASGYTCTSYWMQWVKQRPGQGLEWIGAIYPGDGDTRYTQKFKGKATLTADKSSSTAYMQLSSLASEDSAVYYCARGRRTEAWFAYWGQGTLVTVSA
VL: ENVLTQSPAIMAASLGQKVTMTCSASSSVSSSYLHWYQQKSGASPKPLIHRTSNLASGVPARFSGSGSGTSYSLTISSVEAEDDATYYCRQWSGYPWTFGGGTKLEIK
notes: murine mAb
B9: SC16.84 (antibody, V domains shown)
VH: EVQLQQSGPELVKPGASMKISCKASGYSFTGYTMNWVKQSHGKNLEWIGLINPYNGGTTYNQKFKGKATLTVDKSSSTAYMELLSLTSEDSAVYYCALGYYGNYRRYFDVWGAGTTVTVSS
VL: DIQMTQSPSSLSASLGGKVTITCKASQDIKKYIAWYQHKPGKGPRLLIHYTSTLEPGIPSRFSGSGSGRDYSFSISNLEPEDIATYYCLQYDILWTFGGGTKLEIK
notes: murine mAb
B10: SC16.79 (antibody, V domains shown)
VH: EVQLQQSGPELVKPGASVKISCKTSGYTFTEYTMHWVKQSHGKSLEWIGGINPNNGGTSYNQKFKGKATLTVDKSSSTAYMELRSLTSEDSAVYYCARGPAWFAYWGQGTLVTVSA
VL: DIVMSQSPSSLAVSAGEKVTMSCKSSQSLLNSRTRKNYLAWYQQKPGQSPKLLIYWASTRESGVPDRFTGSGSGTDFTLTISSVQAEDLAVYYCKQSYNLYTFGGGTKLKIK
notes: murine mAb
B11: SC16.7 (antibody, V domains shown)
VH: EVQLQQSGPELVKPGASVKISCKASGYSFTGYKMHWVKQSHVKSLEWIGRINPYNGATSYNQNFKDKATLTVDKSSSTAYMDLHSLTSEDSAVYFCARGDYRYDWFAYWGQGTLVTVSA
VL: NIMMTQSPSSLAVSAGEKVTMSCKSSQSVLYSSNQKNYLAWYQQKPGQSPKLLIYWASTRESGVPDRFTGSGSGTDFTLTISTVQVEDLAVYYCHQYLSSWTFGGGTKLEIK
notes: murine mAb
B12: SC16.67 (antibody, V domains shown)
VH: EVQLVETGGGLVQPKGSLKLSCAVSAFTFTTYAMNWVRQAPGKGLEWVARIRNKSNNYATYYADSVKDRFTISRDDSQSMLYLQMNNLKIEDTAMYYCVFYYDYVYWGQGTLVTVSA
VL: QAVVTQESALTTSPGETVTLTCRSSTGAVTTSNYANWIQEKPDHLFTGLIGGTNNRAPGVPARFSGSLIGDKAALTITGAQTEDEAIYFCGLWYSNHLVFGGGTKLTVL
notes: murine mAb
B13: SC16.65 (antibody, V domains shown)
VH: QVTLKESGPGILQPSQTLSLTCSFSGFSLSTSGMGVGWIRQPSGKGLEWLALIWWDDVKRYNPALKSRLTISKDASSSQVFLKIASVDTADTATYYCARIASYDYDVVYAMDYWGQGTSVSVSS
VL: QIVLTQSPALMSASPGEKVTMTCSVTSSVSYMYWYQQKPRSSPKPWIYLTSNLASGVPARFSGSGSGTSYSLTISSVEAEDAATYYCQQWRNNPFTFGSGTKVEIK
notes: murine mAb
B14: SC16.61 (antibody, V domains shown)
VH: EVLLQRSGPDLVKPGASVTIPCKASGYTFTDYNMDWVKQSHGKSLEWIGNINTYNGGTIYNQKFKGKATLTVDKPSSTAYMELRSLTSEDTAVYYCARRLRYGGHYFDYWGQGTALTVSS
VL: DIVMTQSTSSLAMSVGQKVTMSCKSSQSLLNSSNQKNYLAWYQQEPGQSPKLLVSFASTRESGVPDRFTGSGSGTDFTLTISGVQAEDLAVYYCQQHYSIPLTFGAGTKLELK
notes: murine mAb
B15: SC16.104 (antibody, V domains shown)
VH: QVQLKESGPDLVQPSQTLSLTCTVSGFSLTFYGVHWVRQPPGKGLEWVGTMGWDDKKYYNSALKSRLSISRDTSKNQVFLKLSSLQTEDTAMYYCTRGGTGFDYWGQGTTLTVSS
VL: QIVLSQSPAILSASPGEKVTMTCRASSSVSYIHWYRQKPGSSPKPWIYATSNLASGVPARFSGSGSGTSYSLTISRVEAEDAATYYCQQWSSNPPTFGAGTKLELK
notes: murine mAb
B16: SC16.103 (antibody, V domains shown)
VH: QVTLKESGPGILKPSQTLSLTCSFSGFSLSTSGMGIGWIRQPSGKGLEWLAHIWWDDDKYYNPSLKSQLTISKDSSRNQVFLKITSVDTADTATYYCARRGTAYYFDYWGQGTTLTVSS
VL: DIVLTQSPASLAVSLGQRATISCRASKSVSTSGYSYMHWYQQKPGQPPKLLIYLASNLESGVPARFSGSGSGTDFTLNIHPVEEEDAATYYCQHSRELPLTFGAGTKLELK
notes: murine mAb
B17: SC16.72 (antibody, V domains shown)
VH: EVQLQQSGPELVKPGASVKMSCKASGYTFTSYVMHWVKQKPGQGLEWIGYINPYNDGTKYNEKFKGKATLTSDKSSSTAYMELSSLTSEDSAVYYCARLRSRAMDYWGQGTSVTVSS
VL: ENVLTQSPAIMSASLGEKVTMSCRASSSVNYMSWYQQKSDASPKLWIYYTSNLAPGVPARFSGSGSGNSYSLTISSMEGEDAATYYCQQFTSSPYTFGGGTKLEIK
notes: murine mAb
B18: SC16.80 (antibody, V domains shown)
VH: EVQLQQSGPELVKPGGSKKISCKASGYSFTGYSMNWVKQSHGKNLEWIGLINPYSGGTIYNQKFKGKATLTVDKSSSTAYMELLSLTSEDSAVYYCARRSDYPLVYWGQGTLVTVSA
VL: ETTVTQSPASLSMAIGEKVTIRCITSTDIDDDMIWYQQKPGEPPKLLISEGNTLRPGVPSRFSSSGYGTDFVFTIENMLSEDVADYYCLKRDDLPYTFGGGTQVEIK
notes: murine mAb
B19: SC16.62 (antibody, V domains shown)
VH: EVMLVESGGDLVKPGGSLKLSCAASGFTFSSYAMSWVRQTPEKRLEWVAYISGGGDHIYYPDSVRGRFTISRDNAKDTLYLQMSSLRSEDTALYDCARVRDWYFDVWGAGTTVTVSS
VL: DIKMTQSPSSMYASLGERVTITCKASQDINSFLSWFQRKPGKSPKTLIYRANRLVDGVPSRFTGSGSGQEFSLTISSLEYEDLGIYYCLQYDEFPYTFGGGTKLEIK
notes: murine mAb
B20: SC16.78 (antibody, V domains shown)
VH: EVKLVESGGGLVKPGGSLKLSCAASGFTFGRYVMSWVRQTPEKKLEWVASITSGGTTYYPDSVKGRFTISRDNARNILYLQMSSLRSEDTAMYYCARVYYHYDDIFAYWGQGTLVTVSA
VL: B19 VL with F32Y, R38Q, K42R, T63S, E70D, F71Y, E79D, L83M, Y96F, G100S
notes: murine mAb

The binders below were run against T1, human DLL3 (human, UniProt Q9NYJ7 27-492, limits assumed) (assay: screen on immobilized hDLL3 or h293-hDLL3 cells).
T1 construct: also called hDLL3; DLL3 protein
T1 sequence: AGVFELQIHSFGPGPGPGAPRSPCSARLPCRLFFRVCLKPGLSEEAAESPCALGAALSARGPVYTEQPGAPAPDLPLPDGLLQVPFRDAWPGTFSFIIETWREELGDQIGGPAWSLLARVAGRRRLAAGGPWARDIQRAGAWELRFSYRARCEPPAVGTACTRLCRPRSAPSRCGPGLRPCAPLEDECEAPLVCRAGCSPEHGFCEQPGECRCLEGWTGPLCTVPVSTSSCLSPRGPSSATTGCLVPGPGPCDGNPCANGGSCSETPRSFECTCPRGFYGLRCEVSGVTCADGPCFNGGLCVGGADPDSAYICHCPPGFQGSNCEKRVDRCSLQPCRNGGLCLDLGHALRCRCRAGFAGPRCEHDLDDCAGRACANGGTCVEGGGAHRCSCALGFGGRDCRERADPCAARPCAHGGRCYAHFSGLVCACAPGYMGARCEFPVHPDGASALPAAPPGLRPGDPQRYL
Outline: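 After 10 days in culture, supernatants of single-cell hybridomas from human DLL3-immunized mice were tested on cells and by solid-phase ELISA. A flow-cytometry signal above the control level counted as binding. The ELISA used DLL3-His coated at 0.5 μg/ml, HRP anti-mouse IgG and TMB, with reading at OD 450.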
B1: binds.
B2: binds.
B3: binds.
B4: binds.
B5: binds.
B6: binds.
B7: binds.
B8: binds.
B9: binds.
B10: binds.
B11: binds.
B12: binds.
B13: binds.
B14: binds.
B15: binds.
B16: binds.
B17: binds.
B18: binds.
B19: binds.
B20: binds.
